From PMC11637429 come the findings set out here.

The target in the assay is 6xHis-FoxR^peri-T192A (purified whole periplasmic region of FoxR with T192A) (P. aeruginosa). As to the kind of experiment: AUC; sedimentation velocity titration: FoxR^peri fixed at 10 μm, FoxA^SD at 1, 2, 5, 10, 20, 40 and 80 μm; sw isotherm (absorbance and interference) globally fitted in SEDPHAT to an A+B <-> AB model; 8°C, 20 mM Tris pH 8.3, 500 mM NaCl, 1 mM DTT, 3% glycerol.

In general, Kd refers to the free concentration of one partner at which half of the binding sites on the other are occupied at equilibrium, for simple one-to-one binding. In general, stoichiometry N refers to a count of units in the complex or per binding partner. The substance “6xHis-FoxA^SD (purified signaling domain of FoxA) (from UniProt Q9I116 53-820) (domain or fragment)” came in with a Kd of 4.3 µM and a stoichiometry N of 1.
